From PMC3982999 (Molecular Biology of the Cell, 2014)

Biological target: ubiquitin agarose (UniProt P0CG48 1-76, linked to agarose beads)
Experiment: pull-down

B1: GST-spartin 1-408 (domain or fragment)
chain: MEQEPQNGEPAEIKIIREAYKKAFLFVNKGLNTDELGQKEEAKNYYKQGIGHLLRGISISSKESEHTGPGWESARQMQQKMKETLQNVRTRLEILEKGLATSLQNDLQEVPKLYPEFPPKDMCEKLPEPQSFSSAPQHAEVNGNTSTPSAGAVAAPASLSLPSQSCPAEAPPAYTPQAAEGHYTVSYGTDSGEFSSVGEEFYRNHSQPPPLETLGLDADELILIPNGVQIFFVNPAGEVSAPSYPGYLRIVRFLDNSLDTVLNRPPGFLQVCDWLYPLVPDRSPVLKCTAGAYMFPDTMLQAAGCFVGVVLSSELPEDDRELFEDLLRQMSDLRLQANWNRAEEENEFQIPGRTRPSSDQLKEASGTDVKQLDQGNKDVRHKGKRGKRAKDTSSEEVNLSHIVPCEPV
binding result: binds
